The DeepSol protein solubility set

assay: soluble on expression in E. coli; label from the status in PepcDB or PDB records

| Sequence | soluble on expression in E. coli |
| --- | --- |
| MANRKYFGTDGVRGKVGAYPITPDFALKLGWAAGKVLASQGSKMVLIGKDTRISGYMLESALEAGLAAAGLSAAFTGPMPTPAIAYLTRTFRAEAGIVISASHNPYYDNGIKFFSAKGTKLPDEIEEAIEAMLEQPMDCVESAELGKASRINDAAGRYIEFCKGTFPAHLGLEGYKIVVDCANGATYHIAPNVLRELGAEVIEIGTDPNGLNINEKCGATDVTALQAKVVETKADVGLAYDGDGDRIMMVDHLGNKVDGDQILFIIAREALRSGQLKGGVVGTLMSNMSLEIALKMLGVPFLRANVGDRYVLEKMVENDWTLGGENSGHIIIADKNTTGDGIVASLAVLAAMAQHKLSLNELASAVKLFPQVLINVRFAGGENPLESDAVKSVAAEVEKRLEGKGRILLRKSGTEPLIRVMVECQDAELAQQCAEEIAEAVKKIN | not soluble |
| GIRSLDGQEDEFDANEQEEIEAKRECALRGRVSVAITPAQSREHGQGDQHGGDRSTHTDDPQAGPWHSAAPAQLSDSIRTCIDAIVDRYVTRRDADPVAKRHALAAALVELRAVGVSHPAVAPLTATIWRLMREHLRAYDKATAAENLLALRTRLLELMPSELEPVPALRNFHLLLPLILLNAEKPRRRVDRTHAITRLNTLLIEQPQQAAQEVRP | not soluble |
| MHHHHHHHHIGGDFAVVKAKKSLERRGFGVKRGDKIYLHPLEVVYLQIKGIESFGELEDVLSWAESRMEDFSTYYFVYEDLRDRGNKVKIQGEFLLTKKPYLPISERKTIRMEEIAEKARNFDELRLAVVDEESEITYFRVYEPDMMGEQKEELPEIAGVLSDEYVITKQTEIFSRYFYGSEKGDLVTLSLIESLYLLDLGKLNLLNADREELVKRAREVERNFDRRYEVYRNLKERGFVVKTGFKFGSEFRVYRKVESVDDLPHSEYLVDIADSREIRLIDLARAVRLAQNVRKRMVFAYGKNYLCFERVKV | soluble |
| MGSDKIHHHHHHACGNSDGAGEDPGVPYLAKKGEPVDGVRIGWDYGTIRQLATRGGYPRSIRLQDNTVVAVYENYDTGYEMRCSTDEGSTWGDPVILFPIHSITNDKGTARINIANSEIIQLANGDLLAACNYRPQTPEITPFAIAVRRSTDNGVTWSDPQIIYEAEPRFSDGCWEPSFLQLPNEEVQVYFANEGPYTHSNEQEISMMTSVDNGKTWGGYKTVCFRAGSRDGMPVSKVVGDEIVCVIEDCGFVTFKPYTVRTKLSDNWSSPVLADSPNRAMALGEPVEDWIYMGAPYLGVLPTGETLLSYQVDDIRHDDQLGDRLPYSTMEVAIGDKNARNFVRRTRPFPVPAGKHAVWPSVAVWDANTIAALATSNYQGGTEAPFFMKGHVMRDLEVNSSDIVNYPIFIGHTGICNLRLGVGKDADNLYITCKVKDGELYSGGQGTQKGSGVFIYLDTKNECLKEPAEGVYKVWCSYKGDITVWQGNKGKWENSELEGLQITPSVVSGGYELAFTIPLNRSFNKDAMRLCATLSTKTYTETLVHSNADRSCTWMKMNLGGH | not soluble |
| GPGSMIARAIANRAACTFLNISSSSLMSKWMGDGEKLVRCLFAVATVKQPSVIFIDEIDSLLSMRGEGETDSVRRVKTEFLVQLDGVATDRGDRVLLIGATNRPDELDEAARRRMEKRLYIPLPDEAARRELIQRLLKSLGPSEAGEDGAIGNAGEAASTATATTTTQVTHTLTDADLDTLVRSTDGYSGADLKQLCREAAMGPLREMSIMQLSAVAAADLRPVQRKDFRQALKRLKPSVGPAEVQRYVEWNKLFGSFNEHDDDDDDELEHHEGHGAC | soluble |
| MHHHHHHVMIMKAFISENVRGIYAFDENGNLIEKRYFTDKPEKVLDQLLKGEITKDLEELLNSLKEKGYDEFVFEHPELSRRAKELGFSATTEFPNIAGERLRSNPEEFLGENWFEEYYKVGVALTRMRIQEQSGARDKMVIQAIEALDDVDKVINLLVARLREWYSLHFPELDELLPKHPQYVAFVKTVGHRDNINEEVLRELGLSEEKIKKILEAKEKTMGAWMDQTDIEVVRQLAEEIDRLYQLRKKLEDYIDRAMDDVAPNLKALVGAKLAARLISLAGGLRELAMMPSSTIQVLGAEKALFRHLRTGAKPPKHGVIYQYPAINRSPWWQRGKIARALAGKLAIAARVDYFSGEYIAEELKKELEARIREIK | soluble |
| MGSDKIHHHHHHMAATLEAVPSTKTADKKTEISEADAARELVRMAKEQGLSLTGPDGLLKQLTKTVIETALDEEMTEHLGYEKHDSAGKQTANSRNGVRPKTVLTETTGPVEVDVPRDRAGTFEPVIVKKRQRRLTGVDEMVLSLYAKGLTTGEISAHFAEIYGASVSKETVSRITDRVLEEMAAWQNRPLDEVYAAIFIDAIVVKVRDGQVANRPIYAAIGVTLEGEKDILGLWAGTGGEGAKFWMSVLTDIKNRGVKDTFFLVCDGLKGLPEVVTNVWPLATVQTCIIHLIRNTFRLASRQDWDALKRDVKPIYTAPNAEAARTALEELAERWGRKYGAIVRLWENAWEELIPFLDYDVEIRRVICSTNAIESLNARYRRAVKARGHLPTEQAALKCLYLVTRSLDPTGAGKTRWAVRWKPALNAFAITFSDRFPAAESY | not soluble |
| SLSFASETKKELTNLEVKDCCINAELSALIRMNGALSFTNRHLVLDVQTENAAIARRIYTLLKKQYDVSVELLVRKKMRLKKNNVYIVRFSENAKAILEDLKILGENFVFERSISKELVKKRCCKRSYMRGAFLAGGSVNNPETSSYHLEIFSLYKEHNDSLCDLLNEFQLNSKTLERKKGYITYLKEAEKITEFLNVIGAHNSLLRFEDVRIVRDMRNSVNRLVNCETANLNKTIGASLRQVENIKYIDERIGLEALPEKLREIAQLRIDYQEVTLKELGEMVASGKISKSGINHRLRKLDEIAEQLRTGQTVTLK | soluble |
| MILTFNPGKLERQEFFKELINYLWIHDDVTLRKIKSHFTDYSKIDRLLEEYINHGYILRQNKRYSLNLPFLSSLDGLVLDDLVFIDSDSQIYQLLQKRKFVTNLDNPTNHLVFVEETDFERNTLTLSNYFYKLTNGYPLSREQKKLYQLLGDVNSEYALKYMSSFILKFLRKDSVKQKRTVIFIQALELLGYISLNQDTTYRLNAKLDVEALKIYLT | not soluble |
| MAHHHHHHMRRVIHGEVRHHNTDTNNTRIPWDFTMASYEEINNVILPKFPRSRRRSAIIPLLHLAQRQQGGYIPVTAMYKIARICEVPPMQVFETVTFYSMFNRQPVGKYHIQFCVTTPCMLCGCDELVHRTEAYLNVKMHGTTRDGLITLGEMQCLGACVNAPMLVVSDYSRPPHFSYDFVEDLTWDSVKELIENLREGRPFKVGTCREDRRWSEPAGGRTSIFMKEPPKPYCRDLDAKPVQPGASTGGAAKK | not soluble |
| MSCFVTVGSTLFEDLINQVLCEASLENLKKIGVKKIRLQIGKGNFNQDVIDRVFGETSGDEGSVKCDGLDIDYYRYKPSLSEDMAEALIVIGHGGAGTCLEVLALHLPFITVTNDKLMDNHQAELAVQLSDEGYLLQCTPSTLPETILKENLFSLRQFAAPSKKFVAEHIKQLVGIKNH | not soluble |
| MAHHHHHHMLVFRRNFSRFINNNTPKRGVRKVLHKNVTQYGKYTPNSNIVNQQNDNNKLVRGGGGLLSTFYESFIYGCGFFLSNRLLDQIFGPRTYDSFSNNMDYSNENSGGQAPDNYNSYPSENLNNNDPTINDNDFQQDIGLDDDTFDF | not soluble |
| MGSDKIHHHHHHVTTQLKETPPSDTSSINLEAEFQASNIKEVLDKLDRELIGLKPVKTRIRETAALLLVDRVRKKLDLTAGAPSLHMSFTGNPGTGKTTVAQRMSEILHRLGYVREGHLVSVTRDDLVGQYIGHTAPKTKEVIKKAMGGVLFIDEAYYLYKPENERDYGAESIEILLQVMENNRDDLVVILAGYKDRMDKFFRSNPGMRSRIAHHIDFPDYSPDELVAIAKLMLAAQNYRLSAEAEKAFGEYIRLRMKMEHFANARSVRNALDRARLRQANRLFEGAKKNLSRTDLITIEAEDIRASRVFVEGAVDLDGDEGASRELSEESV | not soluble |
| MSTSHDRAVLNQILNPLMPTSDSGIAEIHLESDSLEHPGYELSLQLEREGVALAEGVRLDEAIEKFTKALEVCPKNPSAYNNRAQAYRLQNKPEKALDDLNEALSLAGPKTKTACQAYVQRASIYRLRGDDDKARTDFASAAELGSSFAKMQLVALNPYAAMCNKMLAEVFEKAKTGED | soluble |
| MSLSQRTDCSLARRSSTVRKQDSSQAIPLVVESCIRFISRHGLQHEGIFRVSGSQVEVNDIKNAFERGEDPLAGDQNDHDMDSIAGVLKLYFRGLEHPLFPKDIFHDLMACVTMDNLQERALHIRKVLLVLPKTTLIIMRYLFAFLNHLSQFSEENMMDPYNLAICFGPSLMSVPEGHDQVSCQAHVNELIKTIIIQHENIFPSPREEGHHHHHH | soluble |
| SNMQLDTLRRIVQEINSSVSLHDSLDIMVNQVADAMKVDVCSIYLLDERNQRYLLMASKGLNPESVGHVSLQLSEGLVGLVGQREEIVNLENASKHERFAYLPETGEEIYNSFLGVPVMYRRKVMGVLVVQNKQPQDFSEAAESFLVTLCAQLSGVIAHAHAVGNIDVFRKPSNGA | soluble |
| MTNISIPGNWQTCDVEAMDGDFDDNMLQFLGSFEEVLPEGVEVETKKGMKKKNKPKKVENTERPEEDAKCVEERRLAKKLRRKEQMAANRKQKKERLAKRKQKEAESSAKKSENATETTTEKPKEQKKRKGGENGDTGKPKKSKKEASKKTDISAWKQFYFLPNEVLEAIEQMGFSEPTEIQSAVLPAAVRDRQDVLGAAETGSGKTLAFGIPLVARLLESSDDSQETESTEVRGPRALIVAPTRELVIQIMKHINALISTTQLIATSIVGGLAQVKQERIISQQRPDIVVATPGRLWAMMQEAETGEFLAEWKDLKCLVVDETDRMVEEGYFAELTHILNKIHEESEKEKLQTLVFSATLTFAKAQDVAEEEKKKAKELSSQQKIQRLIKLTGLRENKHKVIDLTRQMGTAGCLVEARINCGNLLEKDTSLVYLLTRYPGRTIVFVNSIDAARRLYSVLKSVNIDPMILHAKMIQKQRLKNLEKFSESKNAVLLATDVAARGLDIQGIDHVIHYQVPKKVEIYIHRSGRTARASHRGLTVVLVDPPSRQFYMKLCKGLNRMQDLNVFPIDFEPLMNAIKKRVRLASEIDSLGFRCKKIKMSESWFEKAARAADLDYDETRHREMDGLNLEVDTMVQKSRQLQAQLRTELSLPLPRVDGSDSMKTKYITPEIVARLRSVGDNAIDVLNQKIDETKEWKRKSRKATREDEMNSMKKSLKSSQKNKERLAEKKKKEKAAKVTKLSETD | not soluble |
| MICHQCPDRHDSLEEETMNAYSPPTLLQLARQKLLREEALAISALKDLPRELLPEMFEEAFTDECTKTLRAMIPMWPFPCLPVGTLIKNPNLETLKAVLEGLDILLAPKVRSSRCKLRVLNLRNEHHEFWRIWAGSHEDECLPQLTQKQPVENSPDCGVKKHLQVTTDFELTKGRLDESATYLLQWAEQRKDSIHLCCRKLQIQGLSKDAFIEIFKIIDANCVQELELSCIWEEELPFLNPYLRQMKNLLTLKLDDITEVTMDGDDLFDEKKRRKLISQLFSFYCLQNLYVDGTFAEGNMIECLRYLKKPLETLCLRYCFLSQTDLDYLPHCLNICKLKHLSLSYIYLFNLFLEPLGILLERVRDTLQTLELQLCGLTDRHFSVLLPALSQCSHLTKINFYENTISLPVLKQLSYHTANLSQLTQEQYPAPQECYDNMRGVETHRLGNICTELLDILRAKRQPERVAFATSRCIKCRGFLVYDLETQRCFFQH | not soluble |
| PDVKFLEGRYCSVEHIDARKHLNDIIDFYWKNAVPSDWTYMFDQPFETAEAVQERLQDYEKSENPYFFAIRDKETDKVLGTFSLMRIDPKNRVLEMGRVIYAPALQKTSAATEAQYLVMNYVFENLGYRRYEWKCDHLNQSSGNAAKRLGFTYEGTFRKHVVYKGRTRDTDWFSVIDQDWPKLKKRFENWLSPKNF | not soluble |
